Laboratory results reported in the Immune Epitope Database (IEDB).

Legend:
HLA-A*02:01 [1] = test: IEDB peptide-MHC binding, purified MHC/competitive/fluorescence; filed as Kd, often an IC50 or EC50 that approximates it; ≥ and ≤ were set here for values at or beyond the usual limits of such assays
HLA-A*02:12 [2] = test: as above; conditions: source organism: Pseudomonas aeruginosa PACS2
HLA-A*03:01 [3] = test: as above
HLA-A*26:01 = test: as above
HLA-A*29:02 [4] = test: as above
HLA-A*69:01 [5] = test: as above
HLA-B*18:01 [6] = test: as above
HLA-B*27:03 = test: as above
HLA-B*39:01 = test: as above
HLA-B*46:01 [7] = test: as above
HLA-B*51:01 = test: as above; conditions: source organism: Pseudomonas aeruginosa PACS2
HLA-B*57:01 [8] = test: as above; conditions: source organism: Pseudomonas aeruginosa PACS2
HLA-A*02:01 [9] = test: IEDB peptide-MHC binding, purified MHC/competitive/fluorescence; ≥ and ≤ were set here for values at or beyond the usual limits of such assays
HLA-B*15:01 [10] = test: as above
HLA-A*03:01 [11] = test: as above
HLA-A*24:02 = test: as above
HLA-A*11:01 [12] = test: as above
HLA-A*01:01 = test: IEDB peptide-MHC binding, purified MHC/direct/fluorescence; filed as Kd, often an IC50 or EC50 that approximates it; ≥ and ≤ were set here for values at or beyond the usual limits of such assays
HLA-A*02:01 [13] = test: as above
HLA-A*03:01 [14] = test: as above
HLA-A*11:01 [15] = test: as above
HLA-A*29:02 [16] = test: as above
HLA-A*31:01 = test: as above
HLA-A*69:01 [17] = test: as above
HLA-B*08:02 = test: as above
HLA-B*15:01 [18] = test: as above
HLA-B*18:01 [19] = test: as above
HLA-B*27:05 = test: as above
HLA-B*40:01 = test: as above
HLA-B*44:02 = test: as above
HLA-B*46:01 [20] = test: as above
HLA-B*57:01 [21] = test: as above
HLA-B*58:01 [22] = test: as above
HLA-B*58:01 [23] = test: IEDB peptide-MHC binding, purified MHC/competitive/fluorescence; filed as Kd, often an IC50 or EC50 that approximates it; ≥ and ≤ were set here for values at or beyond the usual limits of such assays
HLA-B*15:01 [24] = test: as above; conditions: source organism: Shigella flexneri 5 str. 8401
HLA-B*07:02 = test: IEDB peptide-MHC binding, purified MHC/direct/fluorescence; filed as Kd, often an IC50 or EC50 that approximates it; ≥ and ≤ were set here for values at or beyond the usual limits of such assays; conditions: source organism: West Nile virus
HLA-B*08:01 = test: as above; conditions: source organism: West Nile virus
HLA-B*48:01 = test: as above; conditions: source organism: West Nile virus
HLA-A*02:03 = test: as above; conditions: source organism: Zaire ebolavirus
HLA-A*02:11 = test: as above; conditions: source organism: Zaire ebolavirus
HLA-A*02:12 [25] = test: as above; conditions: source organism: Zaire ebolavirus
HLA-A*02:16 = test: as above; conditions: source organism: Zaire ebolavirus
HLA-A*02:19 = test: as above; conditions: source organism: Zaire ebolavirus
HLA-A*68:02 = test: as above; conditions: source organism: Zaire ebolavirus
[26] = source organism: Pseudomonas aeruginosa PACS2
[27] = source organism: Sudan ebolavirus
[28] = source organism: Zaire ebolavirus
[29] = source organism: Vaccinia virus
[30] = source organism: Yellow fever virus
[31] = source organism: Yersinia pestis Antiqua
[32] = source organism: Shigella flexneri 5 str. 8401
[33] = source organism: West Nile virus
[34] = source organism: Vaccinia virus WR

In the case of KLIDVSKCI, the Kd (HLA-A*02:01 [1]; [26]) is reported as 0.0086 µM, the Kd (HLA-A*02:12 [2]) is reported as 0.0109 µM and the Kd (HLA-A*03:01 [3]; [26]) is reported as ≥ 20 µM. For the same sequence, the Kd (HLA-A*26:01; [26]) was ≥ 20 µM, the Kd (HLA-A*29:02 [4]; [26]) was ≥ 20 µM and the Kd (HLA-A*69:01 [5]; [26]) was ≥ 20 µM. For the same sequence, the Kd (HLA-B*18:01 [6]; [26]) was ≥ 20 µM, the Kd (HLA-B*27:03; [26]) was ≥ 20 µM and the Kd (HLA-B*39:01; [26]) was ≥ 20 µM. For the same sequence, the Kd (HLA-B*46:01 [7]; [26]) was ≥ 20 µM, the Kd (HLA-B*51:01) was ≥ 20 µM and the Kd (HLA-B*57:01 [8]) was ≥ 20 µM.

With VVTNSTLEV the IC50 (HLA-A*02:01 [9]; [27]) was 7.96 µM and the IC50 (HLA-B*15:01 [10]; [27]) was ≥ 114 µM.

For LMNFHQKKN, the IC50 (HLA-A*02:01 [9]; [28]) was ≥ 123 µM, the IC50 (HLA-A*03:01 [11]; [28]) was ≥ 334 µM and the IC50 (HLA-B*15:01 [10]; [28]) was ≥ 265 µM.

WMNHHAITY was tested, and the Kd (HLA-A*29:02 [4]; source organism: Orientia tsutsugamushi str. Boryong) was ≤ 0.0001 µM.

In the case of RMNSNQVCI, the IC50 (HLA-A*02:01 [9]; [29]) is reported as 3.44 µM, the IC50 (HLA-A*03:01 [11]; [29]) is reported as ≥ 118 µM and the IC50 (HLA-A*24:02; [29]) is reported as 0.0818 µM. For the same sequence, the IC50 (HLA-B*15:01 [10]; [29]) was 18.1 µM.

VGKTSQVPK was tested, and the IC50 (HLA-A*03:01 [11]; source organism: Variola virus) was 13.5 µM and the IC50 (HLA-A*11:01 [12]; source organism: Variola virus) was 1.55 µM.

GSRAYRNAL was tested, and the Kd (HLA-A*01:01; [30]) was ≥ 20 µM, the Kd (HLA-A*02:01 [13]; [30]) was ≥ 20 µM and the Kd (HLA-A*03:01 [14]; [30]) was ≥ 20 µM. For the same sequence, the Kd (HLA-A*11:01 [15]; [30]) was ≥ 20 µM, the Kd (HLA-A*29:02 [16]; [30]) was ≥ 20 µM and the Kd (HLA-A*31:01; [30]) was ≥ 20 µM. The Kd (HLA-A*69:01 [17]; [30]) was ≥ 20 µM, the Kd (HLA-B*08:02; [30]) was ≥ 20 µM and the Kd (HLA-B*15:01 [18]; [30]) was ≥ 20 µM. The Kd (HLA-B*18:01 [19]; [30]) was ≥ 20 µM, the Kd (HLA-B*27:05; [30]) was ≥ 20 µM and the Kd (HLA-B*40:01; [30]) was ≥ 20 µM. The Kd (HLA-B*44:02; [30]) was ≥ 20 µM, the Kd (HLA-B*46:01 [20]; [30]) was ≥ 20 µM and the Kd (HLA-B*57:01 [21]; [30]) was ≥ 20 µM. For the same sequence, the Kd (HLA-B*58:01 [22]; [30]) was ≥ 20 µM.

In the case of SAYERGLRY, the Kd (HLA-A*03:01 [3]; [31]) is reported as 0.0535 µM and the Kd (HLA-B*58:01 [23]; [31]) is reported as ≥ 20 µM.

For PVYRDHSEK, the IC50 (HLA-A*03:01 [11]; [28]) was 7.62 µM and the IC50 (HLA-A*11:01 [12]; [28]) was 7.12 µM.

With HILRSQGPF the IC50 (HLA-A*02:01 [9]; [28]) was ≥ 519 µM, the IC50 (HLA-A*24:02; [28]) was 5.72 µM and the IC50 (HLA-B*15:01 [10]; [28]) was 12.8 µM.

HLTPAQLSM was tested, and the Kd (HLA-A*02:01 [1]; [32]) was 0.301 µM, the Kd (HLA-B*15:01 [24]) was 1.78 µM and the Kd (HLA-B*58:01 [23]; [32]) was ≥ 5 µM.

For GMIAGWHGY, the Kd (HLA-A*29:02 [4]; source organism: Influenza B virus (B/Victoria/2/1987)) was 0.0016 µM.

RTYTILNRK showed an IC50 (HLA-A*03:01 [11]; [27]) of 1.05 µM, an IC50 (HLA-A*11:01 [12]; [27]) of 0.163 µM and an IC50 (HLA-A*24:02; [27]) of 42.2 µM.

For GYYSTTIRY, the IC50 (HLA-A*03:01 [11]; [28]) was ≥ 300 µM, the IC50 (HLA-A*24:02; [28]) was 0.831 µM and the IC50 (HLA-B*15:01 [10]; [28]) was 4.56 µM.

ETKKNLTRK was tested, and the IC50 (HLA-A*03:01 [11]; [28]) was 49.6 µM and the IC50 (HLA-A*11:01 [12]; [28]) was 14.1 µM.

LSAIALGVA was tested, and the IC50 (HLA-A*02:01 [9]; [28]) was 25.8 µM and the IC50 (HLA-B*15:01 [10]; [28]) was ≥ 140 µM.

With KCRVKMEKL the Kd (HLA-A*01:01; [33]) was ≥ 20 µM, the Kd (HLA-A*02:01 [13]; [33]) was ≥ 20 µM and the Kd (HLA-A*03:01 [14]; [33]) was ≥ 20 µM. The Kd (HLA-A*11:01 [15]; [33]) was ≥ 20 µM, the Kd (HLA-A*29:02 [16]; [33]) was ≥ 20 µM and the Kd (HLA-A*31:01; [33]) was ≥ 20 µM. For the same sequence, the Kd (HLA-A*69:01 [17]; [33]) was ≥ 20 µM, the Kd (HLA-B*07:02) was ≥ 20 µM and the Kd (HLA-B*08:01) was ≥ 20 µM. The Kd (HLA-B*08:02; source organism: West Nile virus strain PTRoxo) was ≥ 20 µM, the Kd (HLA-B*15:01 [18]; [33]) was ≥ 20 µM and the Kd (HLA-B*18:01 [19]; [33]) was ≥ 20 µM. For the same sequence, the Kd (HLA-B*27:05; [33]) was ≥ 20 µM, the Kd (HLA-B*40:01; [33]) was ≥ 20 µM and the Kd (HLA-B*44:02; [33]) was ≥ 20 µM. For the same sequence, the Kd (HLA-B*46:01 [20]; [33]) was ≥ 20 µM, the Kd (HLA-B*48:01) was ≥ 20 µM and the Kd (HLA-B*57:01 [21]; [33]) was ≥ 20 µM. For the same sequence, the Kd (HLA-B*58:01 [22]; [33]) was ≥ 20 µM.

For KTNDFAPAW, the Kd (HLA-A*02:03) was ≥ 20 µM, the Kd (HLA-A*02:11) was ≥ 20 µM and the Kd (HLA-A*02:12 [25]) was ≥ 20 µM. The Kd (HLA-A*02:16) was ≥ 20 µM, the Kd (HLA-A*02:19) was ≥ 20 µM and the Kd (HLA-A*68:02) was ≥ 20 µM. The Kd (HLA-B*15:01 [18]; source organism: Ebola virus - Gabon (1994-1997)) was ≥ 5 µM, the Kd (HLA-A*02:01 [1]; [28]) was ≥ 20 µM and the Kd (HLA-A*26:01; [28]) was ≥ 20 µM. For the same sequence, the Kd (HLA-A*69:01 [5]; [28]) was ≥ 20 µM, the Kd (HLA-B*18:01 [6]; [28]) was ≥ 20 µM and the Kd (HLA-B*27:03; [28]) was ≥ 20 µM. The Kd (HLA-B*39:01; [28]) was ≥ 20 µM, the Kd (HLA-B*46:01 [7]; [28]) was ≥ 20 µM and the Kd (HLA-B*58:01 [23]; [28]) was 0.0013 µM.

MSNGEHVPF was tested, and the IC50 (HLA-A*24:02; [34]) was 5.46 µM and the IC50 (HLA-B*15:01 [10]; [34]) was 48.7 µM.
